Measurements: US20030207838A1

Target: Fas (CD95) expressed on vascular smooth muscle cells (human) (UniProt P25445)
Experiment: cell-based or functional assay

Chain of UniProt P25445 (P25445 26-335): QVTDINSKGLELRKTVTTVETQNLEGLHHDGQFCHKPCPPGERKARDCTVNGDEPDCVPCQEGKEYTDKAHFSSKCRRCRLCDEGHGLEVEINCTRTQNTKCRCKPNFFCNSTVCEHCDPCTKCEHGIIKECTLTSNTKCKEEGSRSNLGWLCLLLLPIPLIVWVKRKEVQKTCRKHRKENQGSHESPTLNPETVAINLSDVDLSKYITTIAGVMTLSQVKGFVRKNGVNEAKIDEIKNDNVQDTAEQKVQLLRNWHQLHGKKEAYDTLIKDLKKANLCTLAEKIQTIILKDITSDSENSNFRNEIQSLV

percent of apoptotic cells (hypodiploid DNA content) 16 h after treatment, A20-expressing SMC: 33% | percent of apoptotic cells (hypodiploid DNA content) 16 h after αFas treatment, non-infected (NI) SMC: 1.9% | percent of apoptotic cells (hypodiploid DNA content) 16 h after αFas treatment, rAd.β-gal-infected SMC: 2.34% | percent of apoptotic cells after αFas with Actinomycin D (150 nM), NI and rAd.β-gal infected SMC: 28 to 35%
Substance: anti-Fas antibody IgM clone CH-11 (05-201 Upstate)
